± gives the standard deviation of the averaged measurements.
The sequences below were run on Saccharomyces cerevisiae (assay: protein stability index of tFT-peptide fusion (C-terminal peptide) (PSI (0-1 scale)); higher = more stable (slower turnover)). Settings: genetic background: das1 deletion; temperature: 30 C.
Protocol: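 MPS profiling in S. cerevisiae of the yeast C-terminome library: the last 12 aa of each annotated ORF are fused to the C-terminus of a sfGFP-mCherry timer, after a GGGS linker. Cells are FACS-sorted into 8 mCherry/sfGFP bins and deep-sequenced. PSI runs from 0 (unstable) to 1 (stable); wild type and das1Δ backgrounds, two technical replicates each.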

Row | Sequence | protein stability index
1 | TGWPTGLRHQHT [YER133W-A C-terminal 12 aa] | 0.7212 ± 0.0034
2 | TKKLLRDYFSQF [SMN1 C-terminal 12 aa] | 0.712 ± 0.0096
3 | TKMFPAHSHVLW [THP1 C-terminal 12 aa] | 0.716 ± 0.032
4 | TLGLLCLIFGLP [YOR277C C-terminal 12 aa] | 0.482 ± 0.0081
5 | TLLNAQKEALKK [APT1 C-terminal 12 aa] | 0.6698 ± 0.0014
6 | TLSKEPFLVFSF [YDL185C-A C-terminal 12 aa] | 0.499 ± 0.026
7 | TMSLLKRNPRNH [TRM44 C-terminal 12 aa] | 0.704 ± 0.02
8 | TNEWCLFTPDSP [MLH2 C-terminal 12 aa] | 0.744 ± 0.018
9 | TNMSSVSAFISR [PTK2 C-terminal 12 aa] | 0.718 ± 0.0017
10 | TNQPVNENNDLK [SNF3 C-terminal 12 aa] | 0.667 ± 0.013
11 | TPHNHNQNQHTN [RSF1 C-terminal 12 aa] | 0.72 ± 0.029
12 | TPSSVQSSPKRA [ZRG8 C-terminal 12 aa] | 0.696 ± 0.017
13 | TPTCQDPSLTEV [YJR038C C-terminal 12 aa] | 0.7253 ± 0.0048
14 | TSLGLTRTTIIP [CDC4 C-terminal 12 aa] | 0.685 ± 0.021
15 | TSPIGEFQSIKH [SPT21 C-terminal 12 aa] | 0.731 ± 0.015
16 | TSQEINDRLEAL [PRE8 C-terminal 12 aa] | 0.666 ± 0.027
17 | TSSQKIYHTSNK [IPK1 C-terminal 12 aa] | 0.686 ± 0.05
18 | TVDYIASNPDAN [ACP1 C-terminal 12 aa] | 0.696 ± 0.0025
19 | TVGIHSPIDEKC [ATG4 C-terminal 12 aa] | 0.699 ± 0.013
20 | TVVDARIDGRGK [PHB2 C-terminal 12 aa] | 0.6724 ± 0.0014
21 | TYSEREGNLLNS [RPR2 C-terminal 12 aa] | 0.7159 ± 0.0046
22 | VASLPSRYSRYD [ALR1 C-terminal 12 aa] | 0.711 ± 0.024
23 | VDKLAGVRVLPV [GOT1 C-terminal 12 aa] | 0.67 ± 0.01
24 | VEKKKVLSKITL [VPH2 C-terminal 12 aa] | 0.691 ± 0.033
25 | VESTRETGGCNC [YPT53 C-terminal 12 aa] | 0.692 ± 0.027
26 | VFQRAIEKALGE [STR2 C-terminal 12 aa] | 0.707 ± 0.011
27 | VFSKKEPFPHSK [YJR084W C-terminal 12 aa] | 0.721 ± 0.019

Row | Sequence | protein stability index
28 | VGITSVGTRGNY [YNL140C C-terminal 12 aa] | 0.674 ± 0.015
29 | VGNYFMAIQRLN [COQ3 C-terminal 12 aa] | 0.731 ± 0.025
30 | VIASDESSHLSY [YHR127W C-terminal 12 aa] | 0.709 ± 0.017
31 | VKDLYKRLTIQA [GPI1 C-terminal 12 aa] | 0.518 ± 0.018
32 | VKHAEYAINAFF [YPR147C C-terminal 12 aa] | 0.709 ± 0.018
33 | VKHQPKTYRTKK [SGO1 C-terminal 12 aa] | 0.676 ± 0.015
34 | VKRNKYPPRPVH [REF2 C-terminal 12 aa] | 0.704 ± 0.023
35 | VKSDSGSSCTIM [RHO3 C-terminal 12 aa] | 0.721 ± 0.011
36 | VKTKFFPLSSSI [YDR199W C-terminal 12 aa] | 0.738 ± 0.02
37 | VKWKVLCDLGWT [YIL047C-A C-terminal 12 aa] | 0.715 ± 0.023
38 | VKYSRIIPPDIR [SUM1 C-terminal 12 aa] | 0.72 ± 0.017
39 | VLDEEFRNNNAS [RAD26 C-terminal 12 aa] | 0.716 ± 0.0098
40 | VLELSLGFTKLD [MON2 C-terminal 12 aa] | 0.7141 ± 0.0071
41 | VLFLEDNGFFVF [MET3 C-terminal 12 aa] | 0.765 ± 0.024
42 | VLIKHDHTNTHI [MMT1 C-terminal 12 aa] | 0.703 ± 0.028
43 | VMEEEEQDCKCI [POP8 C-terminal 12 aa] | 0.6923 ± 0.00099
44 | VMGQFLPIFEMD [GSM1 C-terminal 12 aa] | 0.724 ± 0.031
45 | VRILTKYPKILV [RIM101 C-terminal 12 aa] | 0.488 ± 0.021
46 | VSGKKFQNVRVL [YPL247C C-terminal 12 aa] | 0.705 ± 0.01
47 | VSLDNLPGVEKK [SUA7 C-terminal 12 aa] | 0.682 ± 0.022
48 | VSLLLNSLALFF [YGL204C C-terminal 12 aa] | 0.688 ± 0.021
49 | VSNLEVLEELFP [DPI35 C-terminal 12 aa] | 0.722 ± 0.015
50 | VTEAESTASAST [BUD20 C-terminal 12 aa] | 0.7 ± 0.013
51 | VVEKVSSITNRN [SRF1 C-terminal 12 aa] | 0.6869 ± 0.0056
52 | VVPAVLFAFLLV [YDL118W C-terminal 12 aa] | 0.446 ± 0.0098
53 | VYENNSYPNSHT [RTT105 C-terminal 12 aa] | 0.6964 ± 0.0011
54 | WDKQKALERRSV [CNS1 C-terminal 12 aa] | 0.723 ± 0.015

Row | Sequence | protein stability index
55 | WGSIGQKLRRSA [YOL118C C-terminal 12 aa] | 0.704 ± 0.012
56 | WLRKWLSTFVHQ [YNL018C C-terminal 12 aa] | 0.732 ± 0.042
57 | WRRSKSISTHLR [YLR366W C-terminal 12 aa] | 0.711 ± 0.0074
58 | WSPLHAAKRHRI [MRPL51 C-terminal 12 aa] | 0.692 ± 0.014
59 | YAGHRFHDGNKL [ERR1 C-terminal 12 aa] | 0.726 ± 0.009
60 | YAINSGARFDLS [HUL5 C-terminal 12 aa] | 0.713 ± 0.025
61 | YANAPIEEKPLI [PUN1 C-terminal 12 aa] | 0.702 ± 0.018
62 | YDYLINNKTIFD [POF1 C-terminal 12 aa] | 0.722 ± 0.022
63 | YEEGESIFGSLF [REV7 C-terminal 12 aa] | 0.71 ± 0.029
64 | YENEEIQRKRCI [YOR364W C-terminal 12 aa] | 0.696 ± 0.017
65 | YFSSNISMKTEN [REB1 C-terminal 12 aa] | 0.7171 ± 0.0057
66 | YIKKSAKKGDKN [YHR140W C-terminal 12 aa] | 0.676 ± 0.032
67 | YKAVSVSANSPE [SOG2 C-terminal 12 aa] | 0.689 ± 0.016
68 | YKNNWLILQQQD [KSP1 C-terminal 12 aa] | 0.694 ± 0.066
69 | YNGGGKKLDGFW [YSP3 C-terminal 12 aa] | 0.7015 ± 0.0059
70 | YNKICSLASRVI [MRPL38 C-terminal 12 aa] | 0.669 ± 0.0074
71 | YPVDKEGDIVLE [THP2 C-terminal 12 aa] | 0.679 ± 0.0084
72 | YQCSETSTPRNT [GIC1 C-terminal 12 aa] | 0.723 ± 0.025
73 | YRIIDCVIAQLP [NVJ3 C-terminal 12 aa] | 0.669 ± 0.045
74 | YSDGRNYKESSI [CSS3 C-terminal 12 aa] | 0.69 ± 0.037
75 | YSILWSDVYPDS [PDR1 C-terminal 12 aa] | 0.7408 ± 0.0068
76 | YTINYETNTVEY [NUP133 C-terminal 12 aa] | 0.641 ± 0.024
77 | YVKEAQSVVTSL [YIR043C C-terminal 12 aa] | 0.672 ± 0.013
78 | YVSHKGFIVEDM [RPL9B C-terminal 12 aa] | 0.695 ± 0.0088
79 | YWRKQYPDADIP [YCR007C C-terminal 12 aa] | 0.71925 ± 0.00051
